Measurements published in the supplement of paper PMC10126150.
± gives the standard deviation of the averaged measurements.

Test system: ATP
Assay: switch fluorescence ratio, 500 uM ATP over buffer (Cy3 cluster intensity, sum of 5 cycles each) (fold (ratio)); higher = stronger signal-on switching upon ATP binding; sequences stand for … in TCGTCGGCAGCGTCAGATGTGTATAAGAGACAGTTTTTTTTTTTTTTTTTTTTTTTTT…TC
Settings: aptamer strand: ATP DNA aptamer (quencher-CACCTGGGGGAGTATTGCGGAGGAAGG + anchor), 100 nM annealed; ATP concentration: 500 uM
In short: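 For every switch-domain sequence, the fluorescence ratio is the mean of per-cluster values, each being summed target-cycle Cy3 intensity over summed buffer-cycle Cy3 intensity. Clusters outside 100-1000 RFU were excluded. On a modified Illumina MiSeq flow-cell, the Cy3-labelled switching-strand clusters were annealed to 100 nM quencher-labelled ATP aptamer, imaged in selection buffer and then after 15 min with 500 uM ATP at 22 °C. Five such cycles were run, with NaOH stripping and re-annealing between them.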
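Also: ATP exposure 15 min at 22 °C before imaging.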

TTAAAAGGGT
switch fluorescence ratio: 0.99 ± 0.013

TTAAAAGTTG
switch fluorescence ratio: 1.051 ± 0.0097

TTAAAATATA
switch fluorescence ratio: 0.984 ± 0.059

TTAAAATCCT
switch fluorescence ratio: 1.12 ± 0.11

TTAAACGAGT
switch fluorescence ratio: 0.997 ± 0.017

TTAAAGAGGG
switch fluorescence ratio: 0.974 ± 0.054

TTAAAGCACT
switch fluorescence ratio: 1.19 ± 0.2

TTAAAGCGGC
switch fluorescence ratio: 0.993 ± 0.083

TTAAAGCGTG
switch fluorescence ratio: 0.969 ± 0.011

TTAAAGGAGG
switch fluorescence ratio: 1.02 ± 0.044

TTAAAGGCTT
switch fluorescence ratio: 0.997 ± 0.019

TTAAAGGGA
switch fluorescence ratio: 1.01 ± 0.022

TTAAAGGGGA
switch fluorescence ratio: 1.04 ± 0.049

TTAAAGGGTG
switch fluorescence ratio: 1.08 ± 0.048

TTAAAGGTTT
switch fluorescence ratio: 1.01 ± 0.018

TTAAAGTGTT
switch fluorescence ratio: 1.09 ± 0.16

TTAAAGTTTT
switch fluorescence ratio: 1.01 ± 0.032

TTAAATTATT
switch fluorescence ratio: 0.984 ± 0.024

TTAAATTCAT
switch fluorescence ratio: 0.97175 ± 0.0009

TTAAATTTCT
switch fluorescence ratio: 1.02 ± 0.0034

TTAAATTTTA
switch fluorescence ratio: 1.01 ± 0.019

TTAACAATCG
switch fluorescence ratio: 1.02 ± 0.02

TTAACATATA
switch fluorescence ratio: 1.017 ± 0.0088

TTAACCAGTC
switch fluorescence ratio: 1.04 ± 0.022

TTAAGAAAAG
switch fluorescence ratio: 1.1 ± 0.065

TTAAGAAGCG
switch fluorescence ratio: 1.01 ± 0.06

TTAAGAGACA
switch fluorescence ratio: 1.03 ± 0.033

TTAAGAGATA
switch fluorescence ratio: 0.989 ± 0.018

TTAAGAGGG
switch fluorescence ratio: 0.987 ± 0.014

TTAAGAGGGG
switch fluorescence ratio: 0.975 ± 0.042

TTAAGAGGGT
switch fluorescence ratio: 0.997 ± 0.015

TTAAGATAGG
switch fluorescence ratio: 1.01 ± 0.025

TTAAGATGTA
switch fluorescence ratio: 1.01 ± 0.039

TTAAGATGTT
switch fluorescence ratio: 0.993 ± 0.016

TTAAGCAACA
switch fluorescence ratio: 1.13 ± 0.018

TTAAGCGGCC
switch fluorescence ratio: 1.067 ± 0.0072

TTAAGCTGAA
switch fluorescence ratio: 0.961 ± 0.044

TTAAGGACTT
switch fluorescence ratio: 1.01 ± 0.011

TTAAGGATAC
switch fluorescence ratio: 1.15 ± 0.21

TTAAGGCACG
switch fluorescence ratio: 0.999 ± 0.017

TTAAGGCATG
switch fluorescence ratio: 0.997 ± 0.018

TTAAGGGAAG
switch fluorescence ratio: 1.02 ± 0.036

TTAAGGGCAT
switch fluorescence ratio: 1 ± 0.015

TTAAGGGCGC
switch fluorescence ratio: 1 ± 0.084

TTAAGGGGTA
switch fluorescence ratio: 1 ± 0.019

TTAAGGTAAA
switch fluorescence ratio: 1.01 ± 0.049

TTAAGGTCGT
switch fluorescence ratio: 0.995 ± 0.034

TTAAGTACGC
switch fluorescence ratio: 1.29 ± 0.014

TTAAGTCTTC
switch fluorescence ratio: 0.964 ± 0.039

TTAAGTGGCT
switch fluorescence ratio: 1.016 ± 0.0095

TTAAGTGGGT
switch fluorescence ratio: 0.979 ± 0.061

TTAAGTGGTT
switch fluorescence ratio: 0.998 ± 0.011

TTAAGTTCAT
switch fluorescence ratio: 0.9806 ± 0.0067

TTAAGTTGCA
switch fluorescence ratio: 1.05 ± 0.028

TTAATAAAAT
switch fluorescence ratio: 0.966 ± 0.018

TTAATATGTA
switch fluorescence ratio: 0.9897 ± 0.0074

TTAATATTAT
switch fluorescence ratio: 0.978 ± 0.013

TTAATCAATG
switch fluorescence ratio: 0.998 ± 0.029

TTAATCATAG
switch fluorescence ratio: 1 ± 0.066

TTAATCGTTA
switch fluorescence ratio: 1.01 ± 0.011

TTAATGACTT
switch fluorescence ratio: 1.02 ± 0.058

TTAATGATGG
switch fluorescence ratio: 1.012 ± 0.0075

TTAATGCAAC
switch fluorescence ratio: 1.01 ± 0.021

TTAATGGCTA
switch fluorescence ratio: 0.976 ± 0.021

TTAATGGGA
switch fluorescence ratio: 0.995 ± 0.011

TTAATGGGAT
switch fluorescence ratio: 0.987 ± 0.021

TTAATGTGAT
switch fluorescence ratio: 1 ± 0.012

TTAATTAAAC
switch fluorescence ratio: 1.013 ± 0.0035

TTAATTAACG
switch fluorescence ratio: 0.995 ± 0.023

TTAATTCGTC
switch fluorescence ratio: 0.949 ± 0.021

TTAATTGGCC
switch fluorescence ratio: 0.992 ± 0.055

TTAATTGGGA
switch fluorescence ratio: 0.9897 ± 0.0028

TTAATTGGGC
switch fluorescence ratio: 1.03 ± 0.069

TTAATTTCGG
switch fluorescence ratio: 0.991 ± 0.065

TTAATTTGAG
switch fluorescence ratio: 0.986 ± 0.03

TTAATTTTTG
switch fluorescence ratio: 0.996 ± 0.029

TTACAAGACG
switch fluorescence ratio: 1.032 ± 0.0049

TTACAAGGGA
switch fluorescence ratio: 1.09 ± 0.18

TTACAATATT
switch fluorescence ratio: 1.07 ± 0.03

TTACAATTTG
switch fluorescence ratio: 1.01 ± 0.039

TTACACGATA
switch fluorescence ratio: 1.32 ± 0.15

TTACAGCTGA
switch fluorescence ratio: 1.01 ± 0.016

TTACAGGCCT
switch fluorescence ratio: 1.05 ± 0.056

TTACAGGGGC
switch fluorescence ratio: 1.11 ± 0.061

TTACATAGGG
switch fluorescence ratio: 1.019 ± 0.0079

TTACATAGTA
switch fluorescence ratio: 1.06 ± 0.071

TTACATATGG
switch fluorescence ratio: 1.024 ± 0.0032

TTACATTTTG
switch fluorescence ratio: 1.01 ± 0.026

TTACCAGCTT
switch fluorescence ratio: 1.02 ± 0.063

TTACCAGTTG
switch fluorescence ratio: 1.04 ± 0.031

TTACCCATGG
switch fluorescence ratio: 0.937 ± 0.064

TTACCCCGAA
switch fluorescence ratio: 1.026 ± 0.0067

TTACCGGATA
switch fluorescence ratio: 1.035 ± 0.0092

TTACCGGGAG
switch fluorescence ratio: 1.05 ± 0.013

TTACCGGTAG
switch fluorescence ratio: 0.993 ± 0.059

TTACCGTACG
switch fluorescence ratio: 1.45 ± 0.11

TTACCGTGCC
switch fluorescence ratio: 1.27 ± 0.059

TTACCTCATT
switch fluorescence ratio: 1.02 ± 0.015

TTACCTGGGG
switch fluorescence ratio: 1.03 ± 0.038

TTACCTTTTT
switch fluorescence ratio: 1.02 ± 0.013

TTACGAAGGG
switch fluorescence ratio: 1.012 ± 0.0045

TTACGACCGG
switch fluorescence ratio: 1.01 ± 0.032

TTACGGAGGC
switch fluorescence ratio: 1.0641 ± 5.8e-05

TTACGGAT
switch fluorescence ratio: 1.06 ± 0.019

TTACGGATGT
switch fluorescence ratio: 1.02 ± 0.012

TTACGGCAGG
switch fluorescence ratio: 1.13 ± 0.092

TTACGGCCAA
switch fluorescence ratio: 1.26 ± 0.31

TTACGGCCGA
switch fluorescence ratio: 1.02 ± 0.026

TTACGGGGAG
switch fluorescence ratio: 1 ± 0.034

TTACGGGTAG
switch fluorescence ratio: 1.02 ± 0.0088

TTACGGTGCC
switch fluorescence ratio: 0.987 ± 0.03

TTACGGTTGC
switch fluorescence ratio: 0.9665 ± 0.0024

TTACGTTTC
switch fluorescence ratio: 1 ± 0.034

TTACGTTTTG
switch fluorescence ratio: 1.13 ± 0.29

TTACTATTCT
switch fluorescence ratio: 1.001 ± 0.0063

TTACTATTTT
switch fluorescence ratio: 1.03 ± 0.023

TTACTCCTTT
switch fluorescence ratio: 1 ± 0.017

TTACTCGACG
switch fluorescence ratio: 1.06 ± 0.022

TTACTCGTCA
switch fluorescence ratio: 0.989 ± 0.011

TTACTCGTCT
switch fluorescence ratio: 1.08 ± 0.056

TTACTCTATA
switch fluorescence ratio: 1.06 ± 0.016

TTACTGGCT
switch fluorescence ratio: 1 ± 0.059

TTACTGGGGT
switch fluorescence ratio: 1.02 ± 0.021

TTACTTCTTT
switch fluorescence ratio: 0.976 ± 0.027

TTACTTGAGG
switch fluorescence ratio: 1.11 ± 0.13

TTACTTGGCC
switch fluorescence ratio: 0.9818 ± 0.0021

TTAGAAACGC
switch fluorescence ratio: 1.02 ± 0.04

TTAGAAAGGG
switch fluorescence ratio: 0.977 ± 0.029

TTAGAATACG
switch fluorescence ratio: 1 ± 0.045

TTAGACATTA
switch fluorescence ratio: 1.02 ± 0.018

TTAGACGCGG
switch fluorescence ratio: 0.98 ± 0.036

TTAGACGGGG
switch fluorescence ratio: 1 ± 0.034

TTAGAGACGT
switch fluorescence ratio: 1.03 ± 0.027

TTAGAGACTG
switch fluorescence ratio: 1.08 ± 0.11

TTAGAGAGGC
switch fluorescence ratio: 0.961 ± 0.054

TTAGAGAGGT
switch fluorescence ratio: 0.988 ± 0.03

TTAGAGCTTT
switch fluorescence ratio: 0.975 ± 0.021

TTAGAGGAAC
switch fluorescence ratio: 0.965 ± 0.028

TTAGAGGCAT
switch fluorescence ratio: 1.05 ± 0.066

TTAGAGGCGT
switch fluorescence ratio: 1.006 ± 0.0053

TTAGATACCA
switch fluorescence ratio: 1.03 ± 0.039

TTAGATGCGG
switch fluorescence ratio: 1.013 ± 0.01

TTAGCAACGA
switch fluorescence ratio: 1.09 ± 0.039

TTAGCATGTT
switch fluorescence ratio: 1 ± 0.022

TTAGCATTAG
switch fluorescence ratio: 1.23 ± 0.04

TTAGCCGGGT
switch fluorescence ratio: 0.9802 ± 0.0028

TTAGCCGTTG
switch fluorescence ratio: 1.03 ± 0.015

TTAGCGAGGT
switch fluorescence ratio: 1.02 ± 0.032

TTAGCGGGGG
switch fluorescence ratio: 1.03 ± 0.06

TTAGCTCTA
switch fluorescence ratio: 1.012 ± 0.0054

TTAGGAAATT
switch fluorescence ratio: 1.04 ± 0.032

TTAGGAAGGT
switch fluorescence ratio: 1 ± 0.021

TTAGGACGGC
switch fluorescence ratio: 0.876 ± 0.02

TTAGGACTTG
switch fluorescence ratio: 0.985 ± 0.015

TTAGGAGAAT
switch fluorescence ratio: 0.999 ± 0.015

TTAGGCCCTG
switch fluorescence ratio: 0.992 ± 0.041

TTAGGCGCAT
switch fluorescence ratio: 1.03 ± 0.025

TTAGGCTTT
switch fluorescence ratio: 0.9374 ± 0.0049

TTAGGGAA
switch fluorescence ratio: 1.01 ± 0.023

TTAGGGAAGT
switch fluorescence ratio: 0.991 ± 0.031

TTAGGGAGTT
switch fluorescence ratio: 0.9784 ± 0.0062

TTAGGGATAT
switch fluorescence ratio: 1.22 ± 0.42

TTAGGGCCAA
switch fluorescence ratio: 1 ± 0.0078

TTAGGGCCGC
switch fluorescence ratio: 0.966 ± 0.014

TTAGGGCTAG
switch fluorescence ratio: 0.9932 ± 0.0081

TTAGGGCTGC
switch fluorescence ratio: 0.98664 ± 0.00045

TTAGGGGAAG
switch fluorescence ratio: 1.01 ± 0.022

TTAGGGGTGG
switch fluorescence ratio: 0.996 ± 0.032

TTAGGGTCAG
switch fluorescence ratio: 0.997 ± 0.035

TTAGGGTCGC
switch fluorescence ratio: 0.993 ± 0.035

TTAGGGTG
switch fluorescence ratio: 0.992 ± 0.03

TTAGGGTTTC
switch fluorescence ratio: 0.978 ± 0.013

TTAGGTAGCA
switch fluorescence ratio: 1.007 ± 0.0024

TTAGGTATCT
switch fluorescence ratio: 1.01 ± 0.0095

TTAGGTTTGT
switch fluorescence ratio: 1 ± 0.031

TTAGGTTTTG
switch fluorescence ratio: 1.02 ± 0.061

TTAGTAAGTT
switch fluorescence ratio: 1.11 ± 0.12

TTAGTACCCA
switch fluorescence ratio: 1.03 ± 0.0032

TTAGTACCCT
switch fluorescence ratio: 1.06 ± 0.043

TTAGTAGGAG
switch fluorescence ratio: 0.992 ± 0.034

TTAGTAGGTG
switch fluorescence ratio: 0.98 ± 0.024

TTAGTAGTGG
switch fluorescence ratio: 0.974 ± 0.01

TTAGTATGTT
switch fluorescence ratio: 1 ± 0.035

TTAGTCGACC
switch fluorescence ratio: 0.9919 ± 0.0016

TTAGTGATTA
switch fluorescence ratio: 0.996 ± 0.014

TTAGTGCTCC
switch fluorescence ratio: 1.039 ± 0.0018

TTAGTGGCGA
switch fluorescence ratio: 1.19 ± 0.31

TTAGTGTTTT
switch fluorescence ratio: 0.98 ± 0.05

TTAGTTACGG
switch fluorescence ratio: 0.999 ± 0.019

TTAGTTATAG
switch fluorescence ratio: 1 ± 0.025

TTAGTTATGT
switch fluorescence ratio: 0.992 ± 0.0093

TTAGTTGAGT
switch fluorescence ratio: 1.02 ± 0.028

TTAGTTGTAA
switch fluorescence ratio: 1.012 ± 0.0049

TTAGTTGTTT
switch fluorescence ratio: 0.964 ± 0.023

TTAGTTTGTT
switch fluorescence ratio: 0.981 ± 0.014

TTAGTTTTGT
switch fluorescence ratio: 0.999 ± 0.027

TTATAAAAAA
switch fluorescence ratio: 1.07 ± 0.079

TTATAAAAGG
switch fluorescence ratio: 1.031 ± 0.0021

TTATAAAGCG
switch fluorescence ratio: 1.054 ± 0.0028

TTATAAAGGA
switch fluorescence ratio: 1.05 ± 0.046
